The record followed here is PMC5765368, “Large-Scale Low-Cost NGS Library Preparation Using a Robust Tn5 Purification and Tagmentation Protocol”.

Series [1] concerns the target Tn5 transposase, hyperactive allele carrying the E54K and L372P mutations. The series can be described thus: SEC; untagged Tn5 on Superdex200 Increase 10/300 GL (Superdex200 10/300 GL at BZH) in 50 mM Tris pH 7.5, 800 mM NaCl, 0.2 mM EDTA, 2 mM DTT, 10% glycerol; last step of the purification.
The target in series [2] is Tn5 transposase, hyperactive allele carrying the R27S, E54K and L372P mutations. The series is described as above.
Series [3] concerns the target Tn5 transposase R27S,E54K,L372P (bacterial transposon Tn5 (expressed in …, UniProt Q46731 1-476, R27S;E54K;L372P)). Briefly: ITC; ITC: 50 mM Tris pH 7.5, 800 mM NaCl, 0.1 mM EDTA, 5% glycerol, 25 C; 100 uM DNA titrated into 4 uM protein. The note with it: protein: recombinant; tags: His6-Sumo3 removed by SenP2; one extra N-terminal Ser remains; chain copies: 2; 19 bp duplex with 5' overhang (14 nt for ME-A, 15 nt for ME-B). (In general: ITC needs no label: the signal is the heat of the interaction.)

In series [4] the target is Tn5 transposase E54K,L372P (hyperactive) (bacterial transposon Tn5 (expressed in …, UniProt Q46731 1-476, E54K;L372P)). Described as above. Conditions: protein: recombinant; tags: His6-Sumo3 removed by SenP2; one extra N-terminal Ser remains; chain copies: 2; 19 bp duplex with 5' overhang (14 nt for ME-A, 15 nt for ME-B).

Take “Tn5 transposase, hyperactive allele carrying the E54K and L372P mutations (enzyme)”: the stoichiometry N in series [1] was 2. As to “Tn5 transposase, hyperactive allele carrying the R27S, E54K and L372P mutations (enzyme)”, the stoichiometry N in series [2] was 2.

B1: annealed Tn5 linker oligonucleotide (mosaic end); Tn5ME-A/Tn5MErev or Tn5ME-B/Tn5MErev, not stated which (dsDNA)
DNA 1: TCGTCGGCAGCGTCAGATGTGTATAAGAGACAG
DNA 2: CTGTCTCTTATACACATCT
modifications: 5' phosphate on Tn5MErev
As for B1, the results for the Kd in series [3] and in series [4] were 12.9 ± 2.1 µM and 0.5 ± 0.09 µM, respectively.

Broadly, the stoichiometry N is a count of units in the complex or per binding partner. A word on the Kd: it is a measure of binding affinity in units of concentration.
